The values that follow come from IntAct's records for PubMed 20067578.

For this test, the target named is mp2k6_human MAP2K6 (UniProt P52564).
Chain of UniProt P52564 (P52564 whole entry): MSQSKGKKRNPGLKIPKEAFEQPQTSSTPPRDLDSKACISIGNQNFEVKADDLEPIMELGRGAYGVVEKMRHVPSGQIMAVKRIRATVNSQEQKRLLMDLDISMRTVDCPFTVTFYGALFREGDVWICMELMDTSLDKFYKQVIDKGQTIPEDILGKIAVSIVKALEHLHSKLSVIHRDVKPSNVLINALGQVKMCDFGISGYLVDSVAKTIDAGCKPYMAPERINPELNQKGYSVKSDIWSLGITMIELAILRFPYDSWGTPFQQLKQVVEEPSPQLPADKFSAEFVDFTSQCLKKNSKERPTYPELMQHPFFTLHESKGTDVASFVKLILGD

In the case of “Leucine-rich repeat serine/threonine-protein kinase 2 (Homo sapiens), Q5S007 R1441C”, the “effect of a mutation on the interaction” value is listed as “increasing interaction”.
